Measured values from the RNAGym collection of RNA variant scans (doi:10.7554/elife.80360).

B1: HDV Ribozyme (parent)
chain: GGCCGGCAUGGUCCCAGCCUCCUCGCUGGCGCCGGCUGGGCAACAUUCCGAGGGGACCGUCCCCUCGGUAAUGGCGAAUGGGACCCA

Variants of: B1
Test: self-cleavage, relative activity (ratio to wild type); higher = more cleavage; co-transcriptional

| Variant | self-cleavage |
| --- | --- |
| GGCCGGCAUGGUCCCAGCCUCCUGGCUGGCGCCGGCUGGGCAACAUUCCGAGGGGACCGUCCCCUCGGUAAUGGCGAAUGUGACCCA [C24G G81U] | 0.0707 |
| GGCCGGCAUGGUCCCAGCCUCCUGGCUGGCUCCGGCUGGGCAACAUUCCGAGGGGACCGUCCCCUCGGUAAUGGCGAAUGGGACCCA [C24G G31U] | 0.0604 |
| GGCCGGCAUGGUCCCAGCCUCCUGGCUGGCACCGGCUGGGCAACAUUCCGAGGGGACCGUCCCCUCGGUAAUGGCGAAUGGGACCCA [C24G G31A] | 0.0594 |
| GGCCGGCAUGGUCCCAGCCUCCUGGCUGGCGCCGGCUGGGCAACAUUCCGAGGGGACCGUCCCCUCGGUAAUGGCGAAUGGGACCGA [C24G C86G] | 0.112 |
| GGCCGGCAUGGUCCCAGCCUCCUGGCUGGCGCCGGCUGGGCAACAUUCCGAGGGGACCGUCCCCUCGGUAAUGGCGAAUGGGACCAA [C24G C86A] | 0.106 |
| GGCCGGCAUGGUCCCAGCCUCCUGGCUGGCGCCGGCUGGGCAACAUUCCGAGGGGACCGUCCCCUCGGUAAUGUCGAAUGGGACCCA [C24G G74U] | 0.0554 |
| GGCCGGCAUGGUCCCAGCCUCCUGGCUGGCGCCGGCUGGGCAACAUUCCGAGGGGACCGUCCCCUCGGUAAUGGCGAAAGGGACCCA [C24G U79A] | 0.0898 |
| GGCCGGCAUGGUCCCAGCCUCCUUGCUGGCGCCGGCUGGGCACCAUUCCGAGGGGACCGUCCCCUCGGUAAUGGCGAAUGGGACCCA [C24U A43C] | 0.0739 |
| GGCCGGCAUGGUCCCAGCCUCCUGGCUGGCGCCGGCUGGGCAACAUUCCGAGGGGACCGUCCCCUCGGUAAUGGCGAAUGGAACCCA [C24G G82A] | 0 |
| GGCCGGCAUGGUCCCAGCCUCCUGGCUGGCGCCGGCUGGGCAACAUUCCGAGGGGACCGUCCCCUCGGUAAUGGCGAAUGGCACCCA [C24G G82C] | 0 |
| GGCCGGCAUGGUCCCAGCCUCCUGGCUGGCGCCGGCUGGGCAACAUUCCGAGGGGACCUUCCCCUCGGUAAUGGCGAAUGGGACCCA [C24G G59U] | 0.147 |
| GGCCGGCAUGGUCCCAGCCUCCUGGCUGGCGCCGGCUGGGCAACAUUCCGAGGGGACCCUCCCCUCGGUAAUGGCGAAUGGGACCCA [C24G G59C] | 0.0923 |
| GGCCGGCAUGGUCCCAGCCUCCUGGCUGGCGCCGGCUGGGCAACAUUCCGAGGGGACCAUCCCCUCGGUAAUGGCGAAUGGGACCCA [C24G G59A] | 0.0955 |
| GGCCGGCAUGGUCCCAGCCUCCUGGCUGGCGCCGGCUGGACAACAUUCCGAGGGGACCGUCCCCUCGGUAAUGGCGAAUGGGACCCA [C24G G40A] | 0.112 |
| GGCCGGCAUGGUCCCAGCCUCCUGGCUGGCGCCGGCUGGCCAACAUUCCGAGGGGACCGUCCCCUCGGUAAUGGCGAAUGGGACCCA [C24G G40C] | 0.0222 |
| GGCCGGCAUGGUCCCAGCCUCCUGGCUGGCGCCGGCUGGGCAACAUACCGAGGGGACCGUCCCCUCGGUAAUGGCGAAUGGGACCCA [C24G U47A] | 0.106 |
| GGCCGGCAUGGUCCCAGCCUCCUGGCUGGCGCCGGCUGGGCAACAUGCCGAGGGGACCGUCCCCUCGGUAAUGGCGAAUGGGACCCA [C24G U47G] | 0.0978 |
| GGCCGGCAUGGUCCCAGCCUCCUGGCUGGCGCCGGCUAGGCAACAUUCCGAGGGGACCGUCCCCUCGGUAAUGGCGAAUGGGACCCA [C24G G38A] | 0.0631 |
| GGCCGGCAUGGUCCCAGCCUCCUGGCUGGCGCCGGCUCGGCAACAUUCCGAGGGGACCGUCCCCUCGGUAAUGGCGAAUGGGACCCA [C24G G38C] | 0.0791 |
| GGCCGGCAUGGUCCCAGCCUCCUGGCUGGCGCCGGCUGUGCAACAUUCCGAGGGGACCGUCCCCUCGGUAAUGGCGAAUGGGACCCA [C24G G39U] | 0.0314 |
| GGCCGGCAUGGUCCCAGCCUCCUGGCUGGCGCCGGCUGGGCAACAUUCCGAGGGCACCGUCCCCUCGGUAAUGGCGAAUGGGACCCA [C24G G55C] | 0.0656 |
| GGCCGGCAUGGUCCCAGCCUCCUGGCUGGCGCCGGCUGGGCAACAUUCCGAGGGUACCGUCCCCUCGGUAAUGGCGAAUGGGACCCA [C24G G55U] | 0.16 |

| Variant | self-cleavage |
| --- | --- |
| GGCCGGCAUGGUCCCAGCCUCCUGGCUGGCGCCGGCUGGGCAACAUUCCGAGGGGACCGUCCCCUCGGUAAUGGCGAAUCGGACCCA [C24G G80C] | 0.271 |
| GGCCGGCAUGGUCCCAGCCUCCUGGCUGGCGCCGGCUGGGCAACAUUCCGAGGGGACCGUCCCCUCGGUAAUGGUGAAUGGGACCCA [C24G C75U] | 0.0554 |
| GGCCGGCAUGGUCCCAGCCUCCUGGCUGGCGCCGGCUGGGCAACAUUCCGAGGGGACCGUCCCCUCGGUAAUGGGGAAUGGGACCCA [C24G C75G] | 0.13 |
| GGCCGGCAUGGUCCCAGCCUCCUUGCUGGCGCCGGCUGGGCAACAUUCCGGGGGGACCGUCCCCUCGGUAAUGGCGAAUGGGACCCA [C24U A51G] | 0.415 |
| GGCCGGCAUGGUCCCAGCCUCCUGGCUGGCGCCGGCUGGGCAACAUUCCGAGGGGACCGGCCCCUCGGUAAUGGCGAAUGGGACCCA [C24G U60G] | 0.0755 |
| GGCCGGCAUGGUCCCAGCCUCCUGGCUGUCGCCGGCUGGGCAACAUUCCGAGGGGACCGUCCCCUCGGUAAUGGCGAAUGGGACCCA [C24G G29U] | 0.0692 |
| GGCCGGCAUGGUCCCAGCCUCCUGGCUGACGCCGGCUGGGCAACAUUCCGAGGGGACCGUCCCCUCGGUAAUGGCGAAUGGGACCCA [C24G G29A] | 0.188 |
| GGCCGGCAUGGUCCCAGCCUCCUGGCUGCCGCCGGCUGGGCAACAUUCCGAGGGGACCGUCCCCUCGGUAAUGGCGAAUGGGACCCA [C24G G29C] | 0 |
| GGCCGGCAUGGUCCCAGCCUCCUUGCUGGCGCCGGCUGGGCGACAUUCCGAGGGGACCGUCCCCUCGGUAAUGGCGAAUGGGACCCA [C24U A42G] | 0.0923 |
| GGCCGGCAUGGUCCCAGCCUCCUGGCUGGCGCCGGCUGGGCAACAUUCCGAGGGGACCGUCCCCUCAGUAAUGGCGAAUGGGACCCA [C24G G67A] | 0.119 |
| GGCCGGCAUGGUCCCAGCCUCCUGGCUGGCGCCGGCUGGGCAACAUUCCGAGGGGACCGUCCCCUCCGUAAUGGCGAAUGGGACCCA [C24G G67C] | 0.026 |
| GGCCGGCAUGGUCCCAGCCUCCUGGCUCGCGCCGGCUGGGCAACAUUCCGAGGGGACCGUCCCCUCGGUAAUGGCGAAUGGGACCCA [C24G G28C] | 0.214 |
| GGCCGGCAUGGUCCCAGCCUCCUGGCUAGCGCCGGCUGGGCAACAUUCCGAGGGGACCGUCCCCUCGGUAAUGGCGAAUGGGACCCA [C24G G28A] | 0.148 |
| GGCCGGCAUGGUCCCAGCCUCCUGGCUUGCGCCGGCUGGGCAACAUUCCGAGGGGACCGUCCCCUCGGUAAUGGCGAAUGGGACCCA [C24G G28U] | 0.0594 |
| GGCCGGCAUGGUCCCAGCCUCCUGGCUGGCGCCGGCUGGGCAACAUUCCGAGGGGACCGUCCCCUCGGUAACGGCGAAUGGGACCCA [C24G U72C] | 0.111 |
| GGCCGGCAUGGUCCCAGCCUCCUGGCUGGCGCCGGCUGGGCAACAUUCCGAGGGGACCGUCCCCUCGGUAAGGGCGAAUGGGACCCA [C24G U72G] | 0 |
| GGCCGGCAUGGUCCCAGCCUCCUGGCUGGCGCCGGCUGGGCAACAUUCCGAGGGGACCGUCCCCUCGGUAAAGGCGAAUGGGACCCA [C24G U72A] | 0.0437 |
| GGCCGGCAUGGUCCCAGCCUCCUGGCUGGCGCCGGCUGGGCAACAUUCCGAGGGGACCGUCCCCACGGUAAUGGCGAAUGGGACCCA [C24G U65A] | 0.208 |
| GGCCGGCAUGGUCCCAGCCUCCUGGCUGGCGCCGGCUGGGCAACAUUCCGAGGGGACCGUCCCCGCGGUAAUGGCGAAUGGGACCCA [C24G U65G] | 0.233 |
| GGCCGGCAUGGUCCCAGCCUCCUGGCUGGCGCCGGCGGGGCAACAUUCCGAGGGGACCGUCCCCUCGGUAAUGGCGAAUGGGACCCA [C24G U37G] | 0 |
| GGCCGGCAUGGUCCCAGCCUCCUGGCUGGCGCCGGCAGGGCAACAUUCCGAGGGGACCGUCCCCUCGGUAAUGGCGAAUGGGACCCA [C24G U37A] | 0.0674 |
| GGCCGGCAUGGUCCCAGCCUCCUGGCUGGCGCCGGCUGGGCAACAUUCCGAGUGGACCGUCCCCUCGGUAAUGGCGAAUGGGACCCA [C24G G53U] | 0.117 |

| Variant | self-cleavage |
| --- | --- |
| GGCCGGCAUGGUCCCAGCCUCCUGGCUGGCGCCUGCUGGGCAACAUUCCGAGGGGACCGUCCCCUCGGUAAUGGCGAAUGGGACCCA [C24G G34U] | 0.0268 |
| GGCCGGCAUGGUCCCAGCCUCCUGGCUGGCGCCCGCUGGGCAACAUUCCGAGGGGACCGUCCCCUCGGUAAUGGCGAAUGGGACCCA [C24G G34C] | 0.0437 |
| GGCCGGCAUGGUCCCAGCCUCCUGGCUGGCGCCAGCUGGGCAACAUUCCGAGGGGACCGUCCCCUCGGUAAUGGCGAAUGGGACCCA [C24G G34A] | 0.0332 |
| GGCCGGCAUGGUCCCAGCCUCCUGGCUGGCGCCGGCUGGGCAACAUUCCGAUGGGACCGUCCCCUCGGUAAUGGCGAAUGGGACCCA [C24G G52U] | 0.0852 |
| GGCCGGCAUGGUCCCAGCCUCCUUGCUGGCGCCGGCUGGGCAACUUUCCGAGGGGACCGUCCCCUCGGUAAUGGCGAAUGGGACCCA [C24U A45U] | 0.489 |
| GGCCGGCAUGGUCCCAGCCUCCUUGCUGGCGCCGGCUGGGCAACCUUCCGAGGGGACCGUCCCCUCGGUAAUGGCGAAUGGGACCCA [C24U A45C] | 0.26 |
| GGCCGGCAUGGUCCCAGCCUCCUGGCUGGCGCCGGCUGGGCAACAUUCCGAGGGGACCGUCCCCUCGGUAAUGGCGAAUGGGAUCCA [C24G C84U] | 0.12 |
| GGCCGGCAUGGUCCCAGCCUCCUGGCUGGCGCCGGCUGGGCAACAUUCCGAGGGGACCGUCCCCUCGGUAAUAGCGAAUGGGACCCA [C24G G73A] | 0.151 |
| GGCCGGCAUGGUCCCAGCCUCCUGGCUGGCGCCGGCUGGGCAACAUUCCGAGGGGACCGUCCCCUCGGUAAUUGCGAAUGGGACCCA [C24G G73U] | 0.0841 |
| GGCCGGCAUGGUCCCAGCCUCCUGGCUGGCGCCGGCUGGGCAACAUUCCUAGGGGACCGUCCCCUCGGUAAUGGCGAAUGGGACCCA [C24G G50U] | 0.149 |
| GGCCGGCAUGGUCCCAGCCUCCUGGCUGGCGCCGGCUGGGCAACAUUCCCAGGGGACCGUCCCCUCGGUAAUGGCGAAUGGGACCCA [C24G G50C] | 0.0755 |
| GGCCGGCAUGGUCCCAGCCUCCUGUCUGGCGCCGGCUGGGCAACAUUCCGAGGGGACCGUCCCCUCGGUAAUGGCGAAUGGGACCCA [C24G G25U] | 0.0773 |
| GGCCGGCAUGGUCCCAGCCUCCUGGCUGGCGCCGGCUGGGCAACAUUCCGAGGGGACCGUCCCCUCGGUAAUGGCCAAUGGGACCCA [C24G G76C] | 0.219 |
| GGCCGGCAUGGUCCCAGCCUCCUGGCUGGCGCCGGCUGGGCAACAAUCCGAGGGGACCGUCCCCUCGGUAAUGGCGAAUGGGACCCA [C24G U46A] | 0.0326 |
| GGCCGGCAUGGUCCCAGCCUCCUGGCUGGCGCCGGCUGGGCAACACUCCGAGGGGACCGUCCCCUCGGUAAUGGCGAAUGGGACCCA [C24G U46C] | 0.106 |
| GGCCGGCAUGGUCCCAGCCUCCUGGCUGGCGCCGGCUGGGCAACAGUCCGAGGGGACCGUCCCCUCGGUAAUGGCGAAUGGGACCCA [C24G U46G] | 0 |
| GGCCGGCAUGGUCCCAGCCUCCUGGCUGGCGCCGGCUGGGCAACAUUCCGAGGGGACCGUCCCCUCGCUAAUGGCGAAUGGGACCCA [C24G G68C] | 0.126 |
| GGCCGGCAUGGUCCCAGCCUCCUGGCUGGCGCCGGCUGGGCAACAUUCCGAGGGGACCGUCCCCUCGUUAAUGGCGAAUGGGACCCA [C24G G68U] | 0.0191 |
| GGCCGGCAUGGUCCCAGCCUCCUGGCGGGCGCCGGCUGGGCAACAUUCCGAGGGGACCGUCCCCUCGGUAAUGGCGAAUGGGACCCA [C24G U27G] | 0.0536 |
| GGCCGGCAUGGUCCCAGCCUCCUGGCCGGCGCCGGCUGGGCAACAUUCCGAGGGGACCGUCCCCUCGGUAAUGGCGAAUGGGACCCA [C24G U27C] | 0.0791 |
